Tests used:
[1] = biological target: T1, human CD73-His protein (human, UniProt P21589 27-549); assay: cell-based or functional assay
T1 sequence: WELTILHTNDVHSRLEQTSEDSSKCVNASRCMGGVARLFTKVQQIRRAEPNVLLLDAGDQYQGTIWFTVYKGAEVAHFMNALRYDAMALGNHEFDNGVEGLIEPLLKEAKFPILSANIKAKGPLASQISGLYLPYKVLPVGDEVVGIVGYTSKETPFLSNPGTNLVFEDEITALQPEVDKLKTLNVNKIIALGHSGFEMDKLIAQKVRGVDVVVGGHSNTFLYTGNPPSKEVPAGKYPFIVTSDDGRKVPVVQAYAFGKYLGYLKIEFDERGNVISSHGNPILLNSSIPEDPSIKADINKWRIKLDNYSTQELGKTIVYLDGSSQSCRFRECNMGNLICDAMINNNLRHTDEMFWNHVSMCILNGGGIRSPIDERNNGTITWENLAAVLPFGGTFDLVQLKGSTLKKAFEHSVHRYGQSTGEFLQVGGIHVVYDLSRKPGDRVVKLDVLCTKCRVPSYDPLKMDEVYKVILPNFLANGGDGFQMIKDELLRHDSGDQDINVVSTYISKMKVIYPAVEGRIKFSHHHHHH

[2] = biological target: T1, human CD73-His protein; assay: SPR Biacore 8K, antibody captured on Protein A/G, CD73-his in flow, 1:1 model
Description: Antibodies to be tested were captured using a chip covalently coupled with Protein A/G, with the following operational parameters: antibody concentration of 2 μg/mL, contact time of 75 seconds, flow rate of 10 μL/min, and regeneration contact time of 30 seconds. The CD73-his antigen was diluted in HBS-EP pH 7.4 buffer, with the highest concentration being 100 nM, and diluted in a 2-fold gradient down to 0.78 nM. Duplicate wells and a 0 concentration point were set up. 6M guanidine hydrochloride solution was used as the regeneration buffer. Using the Biacore 8K, the samples were injected with the following parameters: binding time of 180 seconds, dissociation time of 900 seconds, flow rate of 30 μL/min, and regeneration contact time of 30 seconds. After the procedure was completed, the Biacore 8K Evaluation Software was used to analyze the data according to the “1:1 binding kinetics model,” yielding the binding kinetics parameters of each antibody to CD73.

[3] = biological target: T2, CD73 protein on the surface of tumor cells (human, UniProt P21589 27-549); assay: flow cytometry on A375 cells
T2 construct: whole, on cells; also called CD73 on H1975 cells; CD73 on MDA-MB-231 cells
T2 sequence (looked up): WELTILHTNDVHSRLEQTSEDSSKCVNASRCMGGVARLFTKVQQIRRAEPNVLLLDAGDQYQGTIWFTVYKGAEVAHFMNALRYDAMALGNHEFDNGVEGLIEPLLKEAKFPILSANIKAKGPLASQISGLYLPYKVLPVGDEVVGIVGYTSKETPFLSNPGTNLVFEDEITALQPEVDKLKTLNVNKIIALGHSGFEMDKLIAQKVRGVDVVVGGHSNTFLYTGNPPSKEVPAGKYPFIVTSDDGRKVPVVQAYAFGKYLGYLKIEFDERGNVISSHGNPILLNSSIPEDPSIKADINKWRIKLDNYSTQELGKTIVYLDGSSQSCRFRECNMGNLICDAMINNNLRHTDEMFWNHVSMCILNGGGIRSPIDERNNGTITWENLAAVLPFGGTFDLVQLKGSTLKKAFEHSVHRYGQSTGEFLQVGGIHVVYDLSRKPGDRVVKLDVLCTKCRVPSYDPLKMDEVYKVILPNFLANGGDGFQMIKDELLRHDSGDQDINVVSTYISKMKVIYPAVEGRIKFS
Description: MDA-MB-231 cells (triple-negative breast cancer), H292 cells (human lung cancer cells), and A375 cells (human malignant melanoma cells), all in their logarithmic growth phase, were collected respectively. The cells were washed once with RPMI-1640 basic medium and then adjusted to a cell concentration of 2.0×10⁶ cells/mL in RPMI-1640 basic medium containing 1% BSA (antibody diluent). The antibodies to be tested were diluted in a 3-fold gradient using the antibody diluent, and 100 μL of each concentration of the test antibodies was mixed with 100 μL of cells in a 96-well cell culture plate and incubated at 4° C. for 1 hour (the maximum working concentration of the test antibodies was 500 nM, with 1×10⁵ target cells per well). The cells were washed twice with PBS to remove unbound test antibodies. Then, the cells were mixed with 200 μL of 5 μg/mL FITC-labeled goat anti-human IgG-Fc secondary antibody and incubated at 4° C. for 30 minutes. The cells were washed twice again with PBS to remove unbound secondary antibodies, and finally, the cells were resuspended in 200 μL of PBS. The binding affinity of the test antibodies to the cells was determined using a flow cytometer.

[4] = biological target: T3, mouse CD73 protein (mouse, UniProt Q61503 29-549, limits assumed); assay: SPR Biacore 8K, antibody captured on Protein A/G
T3 construct: Bought protein; also called CD73-mouse
T3 sequence (looked up): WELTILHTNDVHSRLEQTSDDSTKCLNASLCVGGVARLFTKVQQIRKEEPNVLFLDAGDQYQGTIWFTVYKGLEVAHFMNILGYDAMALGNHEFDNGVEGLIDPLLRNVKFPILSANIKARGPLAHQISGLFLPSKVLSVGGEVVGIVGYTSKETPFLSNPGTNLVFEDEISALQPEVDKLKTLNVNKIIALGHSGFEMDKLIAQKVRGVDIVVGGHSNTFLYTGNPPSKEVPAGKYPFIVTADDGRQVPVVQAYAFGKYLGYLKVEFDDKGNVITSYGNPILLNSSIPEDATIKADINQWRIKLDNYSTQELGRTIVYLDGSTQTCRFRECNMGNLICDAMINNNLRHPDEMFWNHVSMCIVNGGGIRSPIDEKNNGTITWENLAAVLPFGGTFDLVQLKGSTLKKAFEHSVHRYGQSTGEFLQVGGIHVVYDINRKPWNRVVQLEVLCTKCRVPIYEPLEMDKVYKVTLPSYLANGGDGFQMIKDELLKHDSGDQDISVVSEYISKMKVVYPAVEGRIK

[5] = biological target: T2, CD73 protein on the surface of tumor …; assay: cell-based or functional assay
[6] = biological target: T1, human CD73-His protein; assay: ELISA as in Example 3, antigen CD73-his, antibody titrated, absorbance 450 nm

Binder	IC50 (nM), inhibition of enzyme activity of soluble CD73-His (AMP/ATP, Cell Titer-Glo) [1] [nM]	Kd [2] [nM]	koff [2] [s⁻¹]	kon [2] [M⁻¹ s⁻¹]	EC50 [3] [nM]	binding result [4]	IC50, inhibition of CD73 enzyme activity on A375 cells [5] [nM]	IC50, inhibition of CD73 enzyme activity on H292 cells [5] [nM]	IC50, inhibition of CD73 enzyme activity on MDA-MB-231 cells [5] [nM]	EC50 (read off the curve) [6] [nM]
48A11-HuV33 (antibody, human IgG4, V domains shown, Humanized) VH: QVQLVQSGAEVKKPGASVKVSCKASGYTFTSYWMHWVRQAPGQGLEWIGEINPSIGRTNYNEKFKSRVTLTRDTSTSTAYMELSSLRSEDTAVYYCARRVYGTMDYWGQGTLVTVSS VL: DIQMTQSPSSLSASVGDRVTITCKASQDINSYLSWFQQKPGKSPKLLIYRANIWVDGVPSRFSGSGSGQDYTFTISSLQPEDIATYYCLQYDELYTFGQGTKVEIK	4.27	2.26	0.000381	168000	0.789	no binding	1.48	0.859	0.566	
56B10-HuV31 (antibody, human IgG4, V domains shown, Humanized) VH: QVQLQQSGAEVKKPGASVKVSCKASGYTFTRYYIYWVRQRPGQGLEWIGWIYPGNFNTKYNEKFKGRATLTADTSASTAYMELSSLTSEDTAVYYCARDVYDYAGFAYWGQGTLVTVSS VL: DIQLTQSPSFLSASVGDRVTITCKASQGVATAVAWYQQKPGQSPKLLIYWASTRHTGVPDRFSGSGSGTEFTLTISSLQPEDFATYYCQQYSSYPWTFGQGTKVEIK	3.66	1.89	0.000376	199000	1.27	no binding	1.34	0.818	0.61	~0.07
